Here are results for two molecules from patent US20110217318A1 (MOCHIDA PHARMACEUTICAL, published 2011).

The target of experiment [1] is T1, mouse GPVI extracellular region-human Fc fusion protein (mGPVI-hFc) (mouse).
T1 construct: whole fusion entry; also called GPVI-MMM-hFc; mouse GPVI-Fc
In words: competition ELISA, soluble GPVI-Fc against immobilised hGPVI-hFc. The protocol:
To the plate, wherein hGPVI-hFc has been immobilized at 4 μg/mL, a mixture of peroxidase-labeled F1232-37-2 or cF1232-37-2 by the method described in EXAMPLE 14, and hGPVI-hFc, mGPVI-hFc, hGPVI-mL3-hFc, wherein these were prepared in EXAMPLE 7, or hGPVI-K59E-hFc (a fusion protein consisting of one amino acid mutated human GPVI extracellular region, wherein lysine at 59 of human GPVI is substituted for glutamic acid, and human Fc), which has been prepared by the same method as that of EXAMPLE 1 and diluted with 0.1% BSA/PBS was added, and the plate was incubated at 37° C. for one hour. After incubation, the mixture was developed using TMB solution, and absorbance at 450 nm was measured.

The target in experiment [2] is T2, cynomolgus monkey GPVI on cynomolgus monkey platelets (cynomolgus monkey, UniProt A0A2K5VXN2 21-318).
T2 construct: whole, on cells; also called simian platelets
T2 sequence: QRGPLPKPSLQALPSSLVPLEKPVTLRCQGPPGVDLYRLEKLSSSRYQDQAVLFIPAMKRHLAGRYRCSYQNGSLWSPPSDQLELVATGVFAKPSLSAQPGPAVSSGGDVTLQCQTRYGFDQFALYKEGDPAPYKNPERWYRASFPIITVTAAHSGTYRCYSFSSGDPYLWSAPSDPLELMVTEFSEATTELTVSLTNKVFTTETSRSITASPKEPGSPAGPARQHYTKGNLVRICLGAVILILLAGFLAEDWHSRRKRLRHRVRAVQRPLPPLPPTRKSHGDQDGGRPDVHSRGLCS
The experiment is described as follows: homologous competitive binding of 125I-labelled antibody on washed cynomolgus monkey platelets, n=3, mean±S.E. As to the method:
(§1) ACD-A (acid citrate-dextrose) was added to the PRPs prepared from citrated blood obtained from healthy human or cynomolgus monkey to adjust the pH to 6.5. The obtained PRPs were collected by centrifugation at 2,000 rpm. The pelleted platelets were washed with HEPES Buffer (pH was adjusted to 6.5 with ACD-A). An appropriate quantity of HEPES Buffer (pH 7.4) was added to prepare platelet suspension. The number of platelets were determined with SYSMEX® F-820 (Sysmex Co.), then the above-described platelet suspension was diluted with HEPES buffer (pH 7.4) to platelet count at 6×10⁵ cells/μL.
(§2) To the diluted washed platelets, the labeled and non-labeled antibodies were added at final concentrations of 3 nM and 0-1250 nM, respectively, and mixed to obtain platelet count at 3×10⁵ cells/μL. After incubating the mixture on the ice for one hour, the reactant was passed through 30% sucrose/HEPE buffer (pH 7.4) layered column and centrifuged at 12,000 g for 5 min in order to separate the platelets and non-bound antibodies. The radioactivity of each fraction was measured using automatic gamma counter 1470 WIZARD (PerkinElmer Japan). Data was analyzed using GraphPad Prism software (Graph Pad Software, Inc.).

In experiment [3] the target is T3, human platelet membrane glycoprotein VI (GPVI) on human platelets (human, UniProt Q9HCN6 21-339).
T3 construct: whole, on cells
T3 sequence (looked up): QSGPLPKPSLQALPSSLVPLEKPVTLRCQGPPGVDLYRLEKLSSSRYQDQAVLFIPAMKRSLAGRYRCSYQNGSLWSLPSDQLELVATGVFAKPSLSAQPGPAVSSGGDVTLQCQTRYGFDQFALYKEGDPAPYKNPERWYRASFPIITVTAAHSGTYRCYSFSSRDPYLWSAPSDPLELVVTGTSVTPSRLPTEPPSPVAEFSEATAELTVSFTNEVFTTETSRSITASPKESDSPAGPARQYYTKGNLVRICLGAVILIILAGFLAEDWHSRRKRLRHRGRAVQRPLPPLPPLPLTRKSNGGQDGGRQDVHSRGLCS
In words: homologous competitive binding of 125I-labelled antibody on washed human platelets, n=3, mean±S.E. The protocol:
as §1, §2

Experiment [4] has as its target T4, human GPVI extracellular region-human Fc fusion protein (hGPVI-hFc) (human).
T4 construct: Expressed in COS-1, purified on Protein A; also called GPVI-HHH-hFc; hGPVIHHH-hFc
The experiment is described as follows: SPR BIACORE 3000 as in Example 5 (the reference itself). A general note: In SPR one partner is held on a chip, and binding of the other changes the refractive index at the surface.

The target of experiment [5] is T4, human GPVI extracellular region-human …. The experiment is described as follows: ELISA on immobilised hGPVI-hFc; ++ = absorbance 1.0 to 2.0. The protocol:
The hGPVI-hFc prepared by EXAMPLE 1B was diluted with D-PBS to 2 μg/mL and added to immunoplate (Maxisorp, NUNC) at 50 μL/well. After incubation at 37° C. for one hour, the well was washed five times with ion-exchanged water, and D-PBS (pH7.4) containing 2% STABILGUARD® (chemical solutions for stabilizing biological molecules) (Surmodics) was added to each well in 100 μL for blocking. Next, culture supernatant was added to each well and incubated at 37° C. for one hour. After incubation, the well was washed three times with the saline containing 0.05% TWEEN®20 (Polyoxyethylene (20) sorbitan monolaurate). […] After incubation at 37° C. for one hour, washing in a similar manner was performed five times and TMB solution (BIOFX® (reagents for scientific or medical research) was added to each well. After ten minutes at room temperature, the reaction was terminated with 0.5 M sulfuric acid solution. Subsequently, absorbance at 450 nm was measured with the plate spectrophotometer (Multiscan JX, Dainippon Pharmaceutical). As a result, the cell whose culture supernatant reacted to hGPVI-hFc was selected and a cloning with limiting dilution method (“The Introduction to Monoclonal Antibody Experimental Procedure” written by Tamie Andoh and Takeshi Chiba (Kodansha, p97)) was performed. […]
A general note: ELISA stands for enzyme-linked immunosorbent assay.

T1 sequence (chain, as listed by the source limits assumed): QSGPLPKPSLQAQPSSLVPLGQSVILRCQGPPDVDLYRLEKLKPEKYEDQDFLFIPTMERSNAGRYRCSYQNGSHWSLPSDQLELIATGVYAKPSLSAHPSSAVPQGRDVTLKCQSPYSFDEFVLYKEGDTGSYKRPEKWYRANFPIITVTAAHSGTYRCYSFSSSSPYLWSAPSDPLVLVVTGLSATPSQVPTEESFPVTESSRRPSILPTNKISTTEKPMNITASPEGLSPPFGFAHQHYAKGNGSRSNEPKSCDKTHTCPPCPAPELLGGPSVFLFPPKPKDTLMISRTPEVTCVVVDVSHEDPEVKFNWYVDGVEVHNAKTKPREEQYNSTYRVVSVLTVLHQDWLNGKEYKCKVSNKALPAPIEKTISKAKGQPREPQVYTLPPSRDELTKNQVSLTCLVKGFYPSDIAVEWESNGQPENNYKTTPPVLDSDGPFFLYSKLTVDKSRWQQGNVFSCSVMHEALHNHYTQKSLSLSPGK

B1: cF1232-37-2 (mouse/human chimeric F1232-37-2) (antibody, V domains shown)
VH: VQLQQSGPELVRPGESVKISCKGSGYTFTDYAIHWVKLSHAKSLEWIGVISIYYDDTNYNQKFKGKATMTVDKSSSTAYLELARLTSEDSAIYYCARRRDSSGPYAMDYWGQGTSVTVSS
VL: DIVLTQSPASLAVSLGQRATISCRASESVDSYGNSFMHWYQQKPGQPPKLLIYRASNLESGIPARFSGSGSRTDFTLTINPVEADDVATYYCQQSNEDPYTFGGGTKLEIKR
notes: V regions of F1232-37-2 on human IgG4 (Cgamma4) and human Ckappa constant regions; made in COS-1 (/COS) or CHO (/CHO); both preparations are kept under this one id; also called cF1232-37-2/COS; cF1232-37-2/CHO
Regarding B1, the binding result in experiment [1] is “no binding”. For the same molecule, the results for the Kd in experiment [2] and in experiment [3] were 20 nM and 17 nM, respectively.

B2: F1232-37-2 (antibody, V domains shown)
VH: B1 VH
VL: B1 VL
notes: mouse hybridoma monoclonal antibody; also called F1232-37-2 antibody; mouse monoclonal antibody F1232-37-2
In the case of B2, the “KD (Relative value)” value in experiment [4] is 1 relative to F1232-37-2 = 1. In experiment [1], the binding result is “no binding”. For the same molecule, the absorbance in experiment [5] lay in the range of 1 to 2 od.
